Test results: paper PMC3260263, “Structural Characterization of a Novel Chlamydia pneumoniae Type III Secretion-Associated Protein, Cpn0803” (PLoS ONE, 2012)
Values joined by “and” are separate entries in the source; they are usually repeats but may differ in a detail not shown here. Equal entries are not always repeated.

Experiments:
[1] = target: the molecule itself; experiment: SEC; Superdex S200 10/300 GL, 20 mM Tris pH 7, 100 mM KCl, 5 mg/mL protein; column standardized with LMW and HMW standards; peak fractions checked by anti-His Western blot
[2] = target: GST-CdsF (Chlamydia pneumoniae CWL029); experiment: ELISA; glutathione plate assay: GST fusion captured from lysate on glutathione coated plates, bacterial lysate over-expressing the His-tagged protein added, 4°C 2 hours; washed with 500 mM NaCl, 0.1% Triton X-100, 50 mM TRIS-HCl pH 7.5; anti-6xHis antibody, HRP, OPD, absorbance at 450 nm; positive if two standard deviations above GST alone
[3] = target: GST-CdsN (Chlamydia pneumoniae CWL029); experiment: as above
[4] = target: GST-CdsQ (Chlamydia pneumoniae CWL029); experiment: as above

B1: His-Cpn0803 (natural protein)
chain: MAAKTKTLELEDNVFLLLEGNLKRIFATPIGYTTFREFQNVVFNCANGQQEIANFFFEMLINGKLTQELAPQQKQAAHSLIAEFMMPIRVAKDIHERGEFINFITSDMLTQQERCIFLNRLARVDGQEFLLMTDVQNTCHLIRHLLARLLEAQKNPVGEKNLQEIQEEITSLKNHFDELTKALQ
notes: Cpn0803 of Chlamydia pneumoniae CWL029 (ortholog of C. trachomatis CT584), 184 amino acids; Hexamer and dimer in solution by gel filtration; a SeMet derivative was used for phasing only; also called recombinant His-Cpn0803; full-length Cpn0803; source: E. coli, over-expressed, in lysate (glutathione plate assay, GST pull-down); E. coli, purified on a column eluted with 300 mM imidazole …
stoichiometry N [1]: 6 and 2
absorbance (450 nm) (absorbance units) [2]: 0.36
absorbance (450 nm) (absorbance units) [3]: 0.38
absorbance (450 nm) (absorbance units) [4]: 0.41
